Laboratory results published in patent publication US20230174619A1 (published 2023).
Positions count from the first letter of the chain named. Names and notes keep the numbering of the source.

Key:
murine PD-1-Fc [1] = target: T1, murine PD-1-Fc (murine, UniProt Q02242 25-167); assay: bio-layer interferometry (Octet), murine PD-1-Fc surface-immobilized, His-tagged PD-L1 domain
T1 construct: Surface-immobilized in the BLI assay; It differs from the selection antigen (murine PD-1 31-150, C83S, AviTag); also called murine PD-iFc; not shown: Fc portion
T1 sequence (looked up): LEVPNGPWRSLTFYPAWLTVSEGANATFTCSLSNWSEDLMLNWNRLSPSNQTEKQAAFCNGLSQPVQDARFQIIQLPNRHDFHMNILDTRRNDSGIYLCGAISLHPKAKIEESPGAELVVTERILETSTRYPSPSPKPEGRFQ
Protocol: Amino acids are indicated and shown as sticks. (B) Structural alignment indicates an identical structural conformation. (C)-(E) Representative bio-layer interferometry sensograms for PD-L1 wt (C) and two indicated engineered PD-L1 variants (D, E). Raw data (thick lines) was fitted using 1:1 langmuir interaction model (thin lines).
(§1) Phage selections were performed using as an antigen recombinant murine PD-1 protein (amino acids 31-150) with C83S substitution fused to AviTag peptide, biotinylated in vivo and purified from E. coli. After a couple of selection rounds, binding of enriched phage clones were analyzed by ELISA and the selected PD-L1 variants were sequenced. In a competitive phage IC₅₀ ELISA, the 5 PD-L1 variants were examined for their binding properties by competing with 500 nM or 50 nM in solution with PD-1-Fc (FIG. 1).
Amino acid positions 54, 56, 63, 66, 68, 69, 76, 113, 115, and 121-125 were randomized. For the selected variants, dashes represent no amino acid change relative to the wild type sequence. Kd values for the interaction of the variants and murine PD-1 were obtained by bio-layer interferometry; n/a—not available. Table 2 indicates R113 because the original C113 of the murine sequence was substituted already prior to library construction, as indicated above.

murine PD-1-Fc [2] = target: T1, murine PD-1-Fc; assay: bio-layer interferometry 'in similar experiments', dimeric Fc fusion (avidity)
Protocol: as §1
(§2) After expression and purification of the Fc fusion proteins, we obtained with one step purification on a protein A column, good purity and an average yield of 200 mg/L Expi293F culture (FIG. 4). In order to verify whether the purified protein is still binding the PD-1, we determined PD-1/PD-L1 affinities as before.

murine PD-1-Fc [3] = target: T1, murine PD-1-Fc; assay: bio-layer interferometry, Fc fusions; reference wt Fc fusion
murine PD-1-Fc [4] = target: T1, murine PD-1-Fc; assay: bio-layer interferometry 'as before', dimeric Fc fusion (avidity)
Protocol: as §1, §2

murine PD-1-Fc [5] = target: T1, murine PD-1-Fc; assay: bio-layer interferometry (Octet), murine PD-1-Fc surface-immobilized; reference PD-L1 wt in the same format
murine PD-1-Fc [6] = target: T1, murine PD-1-Fc; assay: bio-layer interferometry, monomeric variant 258 as retold in the text (Table 1 prints 2.17)

B1: PD-L1 wt, distal Ig-like domain of murine PD-L1 (amino acids 18-132) with C113R, His-tag fusion expressed in E. coli (ligand)
chain: AFTITAPKDLYVVEYGSNVTMECRFPVERELDLLALVVYWEKEDEQVIQFVAGEEDLKPQHSNFRGRASLPKDQLLKGNAALQITDVKLQDAGVYRCIISYGGADYKRITLKVNA
notes: also called unmodified PD-L1 wt; wt PD-L1; not shown: His-tag
Kd (murine PD-1-Fc [1]): 66 nM

B2: PD-L1 wt Fc fusion protein (Ig-like V-type domain of PD-L1 fused to human Fc), expressed in Expi293F (Fc fusion)
chain: B1 chain
notes: also called wt (200); wt protein; not shown: linker/hinge and human Fc
Kd (murine PD-1-Fc [2]): ~0.6 nM

B3: PD-L1 variant 214 Fc fusion protein (Ig-like V-type domain fused to human Fc), expressed in Expi293F (Fc fusion)
chain: B1 chain with V37L, Y39D, Q49R, V51E, A52S, P59H
notes: not shown: linker/hinge and human Fc
fold improved affinity against the wt Fc fusion (murine PD-1-Fc [3]): ≤ 8 fold | Kd (murine PD-1-Fc [4]): 0.088 nM

B4: PD-L1 variant 214, distal Ig-like domain of murine PD-L1 (amino acids 18-132), His-tag fusion expressed in E. coli (ligand)
chain: B1 chain with V37L, Y39D, Q49R, V51E, A52S, P59H
notes: not shown: His-tag
Kd (murine PD-1-Fc [1]): 2.54 nM | fold advantage in binding compared to PD-L1 wt (murine PD-1-Fc [5]): ≤ 30 fold

B5: PD-L1 variant 258, distal Ig-like domain of murine PD-L1 (amino acids 18-132), His-tag fusion expressed in E. coli (ligand)
chain: B1 chain with Y39S, P59F, I98L
notes: not shown: His-tag
Kd (murine PD-1-Fc [6]): 2.14 nM | Kd (murine PD-1-Fc [1]): 2.17 nM | fold advantage in binding compared to PD-L1 wt (murine PD-1-Fc [5]): ≤ 30 fold

B6: PD-L1 variant 258 Fc fusion protein (Ig-like V-type domain fused to human Fc), expressed in Expi293F (Fc fusion)
chain: B1 chain with Y39S, P59F, I98L
notes: as for B3
fold improved affinity against the wt Fc fusion (murine PD-1-Fc [3]): ≤ 8 fold | Kd (murine PD-1-Fc [4]): 0.077 nM
